In the test the target is CXCR4 receptor on the surface of RIL-175 murine HCC cells (murine (endogenous on murine RIL-175 HCC cells)) (UniProt P70658). The test can be described thus: cell-based or functional assay.

Among the data in US20250041325A1 are cellular uptake in RIL-175 cells (flow cytometry of EGFP), 5% CTCE-EGFP NPs versus 5% SCP-EGFP NPs (scrambled peptide, SEQ ID NO: 2) and mean fluorescence intensity of EGFP in transfected RIL-175 cells (flow cytometry), CTCE-EGFP NPs versus SCP-EGFP NPs values, retold here.

UniProt P70658, sequence (P70658 whole entry): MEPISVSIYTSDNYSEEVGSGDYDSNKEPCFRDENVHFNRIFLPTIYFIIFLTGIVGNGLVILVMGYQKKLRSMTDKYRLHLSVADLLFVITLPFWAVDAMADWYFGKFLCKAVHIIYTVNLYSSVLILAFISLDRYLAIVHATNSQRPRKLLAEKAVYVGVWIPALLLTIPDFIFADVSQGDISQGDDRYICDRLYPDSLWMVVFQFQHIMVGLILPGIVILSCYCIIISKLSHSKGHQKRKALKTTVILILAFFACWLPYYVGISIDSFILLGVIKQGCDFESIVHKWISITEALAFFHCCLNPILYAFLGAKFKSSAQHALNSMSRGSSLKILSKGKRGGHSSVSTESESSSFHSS

“CTCE-9908 peptide conjugated to DSPE-PEG and displayed on polymer-lipid hybrid mRNA nanoparticles (DSPE-PEG-CTCE; CTCE-mRNA NPs)” gave a cellular uptake in RIL-175 cells (flow cytometry of EGFP), 5% CTCE-EGFP NPs versus 5% SCP-EGFP NPs (scrambled peptide, SEQ ID NO: 2) of more than 15 fold and a mean fluorescence intensity of EGFP in transfected RIL-175 cells (flow cytometry), CTCE-EGFP NPs versus SCP-EGFP NPs of 4.5 fold.
